T1: EhPHDK (PH domain containing protein kinase), full-length recombinant protein (E. histolytica, UniProt C4M4G9 1-433)
T1 sequence (looked up): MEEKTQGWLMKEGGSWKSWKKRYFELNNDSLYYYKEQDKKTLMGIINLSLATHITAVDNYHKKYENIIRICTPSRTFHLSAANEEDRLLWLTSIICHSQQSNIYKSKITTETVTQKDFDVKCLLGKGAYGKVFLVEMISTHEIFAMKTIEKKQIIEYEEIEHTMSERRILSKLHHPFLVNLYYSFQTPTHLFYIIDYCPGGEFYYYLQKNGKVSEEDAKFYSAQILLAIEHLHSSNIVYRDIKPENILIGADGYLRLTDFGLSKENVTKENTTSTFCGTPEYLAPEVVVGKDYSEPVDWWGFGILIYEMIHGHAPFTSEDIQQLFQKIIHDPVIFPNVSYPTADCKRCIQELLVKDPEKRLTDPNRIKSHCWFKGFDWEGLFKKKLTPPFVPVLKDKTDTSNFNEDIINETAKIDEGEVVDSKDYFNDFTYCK

B1: EhCaBP1 (calcium binding protein 1), recombinant (natural protein, E. histolytica, UniProt P38505 1-134, looked up)
chain: MAEALFKEIDVNGDGAVSYEEVKAFVSKKRAIKNEQLLQLIFKSIDADGNGEIDQNEFAKFYGSIQGQDLSDDKIGLKVLYKLMDVDGDGKLTKEEVTSFFKKHGIEKVAEQVMKADANGDGYITLEEFLEFSL

Key:
[1] = target: T1, EhPHDK (PH domain containing protein …); assay: BLI
[2] = target: B1; assay: BLI

| Kd [1] [µM] | Kd [2] [µM] | Binder |
| --- | --- | --- |
| 32 |  | B1 |
|  | 243 | IYKSKITTETVTQKD [EhPHDK Peptide 2 (hinge region, IQ motif-like sequence)] |

Reference: paper doi:10.1101/2025.10.24.684426 (bioRxiv, 2025)
